Patent publication US20100279930A1 (published 2010)
No end group written: not given here.

Each binder was assayed against T1, human Y4 receptor (human, UniProt P50391 1-375) (assay: 125I-PP displacement).
T1 sequence (P50391 whole entry): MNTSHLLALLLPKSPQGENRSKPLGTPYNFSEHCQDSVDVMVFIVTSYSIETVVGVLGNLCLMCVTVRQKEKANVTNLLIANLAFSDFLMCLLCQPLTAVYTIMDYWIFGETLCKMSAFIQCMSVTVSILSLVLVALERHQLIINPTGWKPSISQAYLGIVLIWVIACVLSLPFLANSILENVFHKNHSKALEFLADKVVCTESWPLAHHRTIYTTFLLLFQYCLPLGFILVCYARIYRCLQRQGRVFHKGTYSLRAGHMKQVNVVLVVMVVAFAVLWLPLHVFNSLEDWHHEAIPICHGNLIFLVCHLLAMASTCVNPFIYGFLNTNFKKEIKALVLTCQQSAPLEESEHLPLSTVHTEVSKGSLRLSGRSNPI

Row | Binder | IC50
1 | PLEPEYPGDNATPEELAKYAAELRRYINKLTRPRY [4058677] | 0.138 nM
2 | APLEPHYPGDNATPEEMAKYAAELRRYINKLTRPRY [4058696] | 0.045 nM
3 | PAPLEPKYPGDNATPEELAKYAAELRRYINKLTRPRY [4058671] | 0.105 nM
4 | AAPLEPKYPGDNATPEELAKYAAELRRYINKLTRPRY [4058689] | 0.098 nM
5 | PAPLEPKAPGDNATPEQMAKYAAELRRYINKLTRPRY [4058668] | 0.074 nM

Target: T1, human Y4 receptor
Experiment: 125I-PP displacement
Remark: another data set of the same source

Row | Binder | IC50
6 | APLEPVYPGDNATPEELNRYYASLRRYINMLTRPRY [6460] | 0.2 nM
7 | APLEPVYPGDNATEEELVKYFIDLRRYINMLTRPRY [6622] | 1.2 nM
8 | APLEPVYPGDNATEEEAVRLFIDLRRYINMLTRPRY [6621] | 16 nM
9 | APLEPVYPGDNATPEQLAQYAADLRRYINMLTRPRY [6429] | 0.55 nM
10 | APLEPVYPGDNATPEQMAQYAKDLRRYINMLTRPRY [6465] | 0.85 nM
11 | GPLEPVYPGDNATPEQMAQYAADLRRYINMLTRPRY [6636] | 0.6 nM
12 | APLEPVYPGDNATPEQMAQYAADLKRYINMLTRPRY [6432] | 0.36 nM
13 | APLEPVYPGDNATPEQMAHYYASLRRYINMLTRPRY [6640] | 0.15 nM
14 | APLEPFYPGDNATPEQMAQYAAALRRYINMLTRPRY [6605] | 0.13 nM
15 | APLEPVYPGDNATPEQMAQYAADLRHYINMLTRPRY [6438] | 0.49 nM
16 | KPLEPVYPGDNATPEQMAQYAADLRRYINMLTRPRY [6436] | 0.48 nM
17 | APLEPVYPGDNATPEQMAQYAADLRRYINLLTRPRY [6430] | 0.41 nM
18 | APLEPVYPGDNATPEQMAQYAADLRKYINMLTRPRY [6431] | 0.47 nM
19 | APLEPVYPGDNATPEKMAQYAADLRRYINMLTRPRY [6466] | 1.29 nM
20 | APKEPVYPGDNATPEQMAQYAADLRRYINMLTRPRY [6463] | 0.67 nM
21 | APLEPVYPGDNATPEQMAQYAADLRRYINMLTKPRY [6452] | 0.42 nM
22 | APLEPVYPGDNATPEQTAQYAADLRRYINTLTRPRY [6638] | 0.5 nM

Row | Binder | IC50
23 | APLEPVYPGDYATPEQMAQYAADLRRYINMLTRPRY [6440] | 0.26 nM
24 | APLEPVYPGDNATPEQMAQYAADLRRYINTLTRPRY [6437] | 0.3 nM
25 | APLEPVYPGDNATPEQMARYAADLRRYINMLTRPRY [6606] | 0.16 nM
26 | APLKPVYPGDNATPEQMAQYAADLRRYINMLTRPRY [6443] | 4 nM
27 | APLKPVYPGDNATPEQMAQYAADLRRYINMLTRPRY [5920] | 4.5 nM
28 | APLEPVYPGDDATPQQMAQYAAELRRYINMLTRPRY [6457] | 0.13 nM
29 | APLEPVYPGDNATHEQMAQYAADLRRYINMLTRPRY [6441] | 0.3 nM
30 | APLEPEYPGDNATPEQMAQYAAELRRYINMLTRPRY [6458] | 0.18 nM
31 | APLEPVYPGDNATPEQMAQYAADLRRYINMLTAPRY [6450] | 8.8 nM
32 | KPLEPVYPGDNATPEQMAQYAADLRRYINMLTRPRY [6434] | 0.25 nM
33 | APLEPVYPGDNATPEQMAQYAADLRRYINMLTRPAY [6449] | 2.2 nM
34 | AAAPLEPVYPGDNATPEQMAQYAADLRRYINMLTRPRY [6655] | 0.28 nM
35 | APLEPVYPGDNATPEQMARYYASLRHYLNMLTRPRY [6462] | 0.18 nM
36 | AAPLEPVYPGDNATPEQMAQYAADLRRYINLLTRPRY [6656] | 0.22 nM
37 | DAPLEPVYPGDNATPEQMAQYAADLRRYINMLTRPRY [6652] | 0.36 nM
38 | EAPLEPVYPGDNATPEQMAQYAADLRRYINMLTRPRY [6651] | 0.35 nM

More lines, now with the values ahead:

Row | IC50 | Binder
39 | 0.13 nM | KPLEPVYPGDNATPEQMAQYAADLRRYINMLTRPRY (not fully specified; lauryl-lysine at position 1 (replaces Ala 1)) [compound of SEQ ID NO:11 (code 6435)]
40 | 0.17 nM | HAPLEPVYPGDNATPEQMAQYAADLRRYINMLTRPRY [compound of SEQ ID NO:53 (code 6650)]
41 | 0.21 nM | KAPLEPVYPGDNATPEQMAQYAADLRRYINMLTRPRY [compound of SEQ ID NO:52 (code 6647)]
42 | 0.21 nM | PAPLEPVYPGDNATPEQMAQYAADLRRYINMLTRPRY [compound of SEQ ID NO:56 (code 6653)]

Target: T1, human Y4 receptor
Experiment: 125I-PP displacement
Remark: another data set of the same source

Row | Binder | IC50
43 | APLEPVYPGDNATPEQMAQYAADLRRYINILTRPRY (ends and bridges not checked) [compound of SEQ ID NO:259 (code 4055713)] | 0.22 nM
44 | APLEPVYPGDNATPEQMAQYAADLRRYINMLTRPRF (ends and bridges not checked) [compound of SEQ ID NO:255 (code 4055708)] | 0.16 nM
45 | APLEPEYPGDNATPEQMAQYAADLRRYINMLTRPRY (ends and bridges not checked) [compound of SEQ ID NO:276 (4055746)] | 0.16 nM
46 | APLEPFYPGDNATPEQMAQYAADLRRYINMLTRPRY (ends and bridges not checked) [compound of SEQ ID NO:275 (code 4055745)] | 0.17 nM
47 | APLEPVYPGDNATPEQMAQYAADLRRYINFLTRPRY (ends and bridges not checked) [compound of SEQ ID NO:261 (code 4055715)] | 0.13 nM
48 | APLEPVYPGDNATPEQMAQYAADLRRYINVLTRPRY (ends and bridges not checked) [compound of SEQ ID NO:260 (code 4055714)] | 0.09 nM
49 | APLEPVYPGDNATPEQMAQYAAALRRYINMLTRPRY [compound of SEQ ID NO:277 (Ala 23, code 4055747)] | 0.079 nM
50 | APLEPVYPGDNATPEQMAQYAADLRRYINKLTRPRY [compound of SEQ ID NO:281 (Lys 30, code 4055855)] | 0.16 nM

Target: T1, human Y4 receptor
Experiment: 125I-PP displacement
Remark: another data set of the same source

Row | Binder | IC50
51 | PLEPHYPGDDATPQQMAHYYSELRRYINKLTRPRY [4457895] | 0.145 nM
52 | GAPLEPKYPGDNATPEEKAKYAAELRRYINKLTRPRY [4061236] | 0.052 nM
53 | PAPLEPKYPGDNATPEQMAKYAAELRRYINKLTRPRY [4068672] | 0.059 nM
54 | PAPLEPKYPGDNATPEEMAKYAAELRRYIDKLTRPRY [4061237] | 0.16 nM
55 | PAPLEPTYPGDNATPEEKAKYYSELRRYINKLTRPRY [4061239] | 0.054 nM
56 | PAPLEPKYPGDNATPEEKAKYAAELRRYINKLTRPRY [4061235] | 0.054 nM
57 | GAPLEPKYPGDNATPEEMAKYAAELRRYIDKLTRPRY [4061238] | 0.138 nM
